Laboratory results published in PMC8345934, “Biochemical Studies of Mitochondrial Malate: Quinone Oxidoreductase from Toxoplasma gondii” (International Journal of Molecular Sciences, 2021).

T1: malate:quinone oxidoreductase (TgMQO) (Toxoplasma gondii, UniProt Q1KSF3)
T1 construct: gene mqo; lacking the mitochondrial targeting signal (Δ1-37 residues), His-tag purified
T1 sequence (Q1KSF3 38-549): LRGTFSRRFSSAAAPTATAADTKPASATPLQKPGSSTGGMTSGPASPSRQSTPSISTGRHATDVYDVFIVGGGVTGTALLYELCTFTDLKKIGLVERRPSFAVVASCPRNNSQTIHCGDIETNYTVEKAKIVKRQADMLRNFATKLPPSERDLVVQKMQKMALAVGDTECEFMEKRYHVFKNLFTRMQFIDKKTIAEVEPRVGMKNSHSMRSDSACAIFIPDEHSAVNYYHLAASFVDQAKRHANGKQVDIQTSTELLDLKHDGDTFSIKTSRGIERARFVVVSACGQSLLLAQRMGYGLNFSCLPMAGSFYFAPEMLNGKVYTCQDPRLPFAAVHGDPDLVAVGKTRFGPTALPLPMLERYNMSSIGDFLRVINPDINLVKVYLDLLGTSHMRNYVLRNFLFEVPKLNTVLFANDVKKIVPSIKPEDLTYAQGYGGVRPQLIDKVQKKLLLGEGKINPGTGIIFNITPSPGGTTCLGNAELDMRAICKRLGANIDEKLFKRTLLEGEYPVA

B1: malate:quinone oxidoreductase (TgMQO) (Toxoplasma gondii) (protein)
chain: T1 sequence (Q1KSF3 38-549)

Tests used:
[1] = biological target: T1, malate:quinone oxidoreductase (TgMQO); test: spectrophotometric dUQ reduction at […] nm, purified recombinant enzyme; format: biochemical
purified protein [2] = substrate: CCCCCCCCCCC1=C(C)C(=O)C(OC)=C(OC)C1=O; test: purified protein; settings: FAD ubiquinone binding site
purified protein [3] = substrate: COC1=C(OC)C(=O)C(C)=CC1=O; test: purified protein; settings: FAD ubiquinone binding site
purified protein [4] = substrate: COC1=C(OC)C(=O)C(C/C=C(\C)CC/C=C(\C)CC/C=C(\C)CC/C=C(\C)CC/C=C(\C)CCC=C(C)C)=C(C)C1=O; test: purified protein; settings: FAD ubiquinone binding site
purified protein [5] = substrate: COC1=C(OC)C(=O)C(C/C=C(\C)CC/C=C(\C)CC/C=C(\C)CCC=C(C)C)=C(C)C1=O; test: purified protein; settings: FAD ubiquinone binding site
purified protein [6] = substrate: COC1=C(OC)C(=O)C(C/C=C(\C)CCC=C(C)C)=C(C)C1=O; test: purified protein; settings: FAD ubiquinone binding site
purified protein [7] = substrate: COC1=C(OC)C(=O)C(CC=C(C)C)=C(C)C1=O; test: purified protein; settings: FAD ubiquinone binding site
purified protein [8] = substrate: O=C(O)C[C@H](O)C(=O)O; test: purified protein; settings: FAD malate binding site

Molecule | IC50 [1] [nM] | Km (purified protein [2]) [µM] | Vmax (purified protein [2]) [µmol/min/mg] | Km (purified protein [3]) [µM] | Vmax (purified protein [3]) [µmol/min/mg] | Km (purified protein [4]) [µM] | Vmax (purified protein [4]) [µmol/min/mg] | Km (purified protein [5]) [µM] | Vmax (purified protein [5]) [µmol/min/mg] | Km (purified protein [6]) [µM] | Vmax (purified protein [6]) [µmol/min/mg] | Km (purified protein [7]) [µM] | Vmax (purified protein [7]) [µmol/min/mg] | Km (purified protein [8]) [µM] | Vmax (purified protein [8]) [µmol/min/mg]
CC(C)=CCC/C(C)=C/CC/C(C)=C/Cc1c(O)c2ccccc2oc1=O [Ferulenol] | 822 ± 151 |  |  |  |  |  |  |  |  |  |  |  |  |  | 
B1 |  | 17 ± 4.7 | 12.1 | 225 ± 77 | 12.7 | 8.0 ± 3.3 | 3.64 | 7.7 ± 4.3 | 4.39 | 13.2 | 45.1 | 116 ± 16 | 44.2 | 370 ± 140 | 6.3
